Measurements from the supplement of paper PMC5998384.

Key:
HeLa Kyoto [1] = test: melting temperature (median over replicates), in situ; higher = more thermally stable
HeLa Kyoto [2] = test: thermal stability score vs G1/S (z-score of summed log2 fold changes over temperatures); higher = more thermally stable than in G1/S
[3] = cell cycle stage: early G1 (4.5 h after nocodazole release)
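For melting temperature (median over replicates), in situ in this document: HeLa Kyoto cells synchronized by double thymidine or nocodazole block, proteins quantified by TMT10plex mass spectrometry, three independent biological replicates.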
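For thermal stability score vs G1/S (z-score of summed log2 fold changes over temperatures) in this document: synchronized HeLa Kyoto cells, proteins quantified by TMT10plex mass spectrometry, three biological replicates, mitosis taken 0.5 h after nocodazole release, G1/S directly after double thymidine block.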

In the case of “MDGPVAEHAKQEPFHVVTPLLESWALSQVAGMPVFLKCENVQPSGSFKIRGIGHFCQEMAKKGCRHLVCSSGGNAGIAAAYAARKLGIPATIVLPESTSLQVVQRLQGEGAEVQLTGKVWDEANLRAQELAKRDGWENVPPFDHPLIWKGHASLVQELKAVLRTPPGALVLAVGGGGLLAGVVAGLLEVGWQHVPIIAMETHGAHCFNAAITAGKLVTLPDITSVAKSLGAKTVAARALECMQVCKIHSEVVEDTEAVSAVQQLLDDERMLVEPACGAALAAIYSGLLRRLQAEGCLPPSLTSVVVIVCGGNNINSRELQALKTHLGQV [SDSL]”, the melting temperature (HeLa Kyoto [1]; cell cycle stage: G1/S) is reported as 55.1 °C, the melting temperature (HeLa Kyoto [1]; cell cycle stage: mitosis) is reported as 57.9 °C and the thermal stability score (HeLa Kyoto [2]; [3]) is reported as -3.07. The thermal stability score (HeLa Kyoto [2]; cell cycle stage: mitosis) was -2.65.
“MDSFNYTTPDYGHYDDKDTLDLNTPVDKTSNTLRVPDILALVIFAVVFLVGVLGNALVVWVTAFEAKRTINAIWFLNLAVADFLSCLALPILFTSIVQHHHWPFGGAACSILPSLILLNMYASILLLATISADRFLLVFKPIWCQNFRGAGLAWIACAVAWGLALLLTIPSFLYRVVREEYFPPKVLCGVDYSHDKRRERAVAIVRLVLGFLWPLLTLTICYTFILLRTWSRRATRSTKTLKVVVAVVASFFIFWLPYQVTGIMMSFLEPSSPTFLLLKKLDSLCVSFAYINCCINPIIYVVAGQGFQGRLRKSLPSLLRNVLTEESVVRESKSFTRSTVDTMAQKTQAV [C5AR1]” showed a melting temperature (HeLa Kyoto [1]; cell cycle stage: G1/S) of 57.8 °C, a melting temperature (HeLa Kyoto [1]; cell cycle stage: mitosis) of 57.4 °C and a thermal stability score (HeLa Kyoto [2]; [3]) of -2.16. The thermal stability score (HeLa Kyoto [2]; cell cycle stage: mitosis) was -2.08.
In the case of “MKLVFLVLLFLGALGLCLAGRRRSVQWCAVSQPEATKCFQWQRNMRKVRGPPVSCIKRDSPIQCIQAIAENRADAVTLDGGFIYEAGLAPYKLRPVAAEVYGTERQPRTHYYAVAVVKKGGSFQLNELQGLKSCHTGLRRTAGWNVPIGTLRPFLNWTGPPEPIEAAVARFFSASCVPGADKGQFPNLCRLCAGTGENKCAFSSQEPYFSYSGAFKCLRDGAGDVAFIRESTVFEDLSDEAERDEYELLCPDNTRKPVDKFKDCHLARVPSHAVVARSVNGKEDAIWNLLRQAQEKFGKDKSPKFQLFGSPSGQKDLLFKDSAIGFSRVPPRIDSGLYLGSGYFTAIQNLRKSEEEVAARRARVVWCAVGEQELRKCNQWSGLSEGSVTCSSASTTEDCIALVLKGEADAMSLDGGYVYTAGKCGLVPVLAENYKSQQSSDPDPNCVDRPVEGYLAVAVVRRSDTSLTWNSVKGKKSCHTAVDRTAGWNIPMGLLFNQTGSCKFDEYFSQSCAPGSDPRSNLCALCIGDEQGENKCVPNSNERYYGYTGAFRCLAENAGDVAFVKDVTVLQNTDGNNNEAWAKDLKLADFALLCLDGKRKPVTEARSCHLAMAPNHAVVSRMDKVERLKQVLLHQQAKFGRNGSDCPDKFCLFQSETKNLLFNDNTECLARLHGKTTYEKYLGPQYVAGITNLKKCSTSPLLEACEFLRK [LTF]”, the thermal stability score (HeLa Kyoto [2]; [3]) is reported as -3.21 and the thermal stability score (HeLa Kyoto [2]; cell cycle stage: mitosis) is reported as -1.19.
Work on “MNPGFDLSRRNPQEDFELIQRIGSGTYGDVYKARNVNTGELAAIKVIKLEPGEDFAVVQQEIIMMKDCKHPNIVAYFGSYLRRDKLWICMEFCGGGSLQDIYHVTGPLSELQIAYVSRETLQGLYYLHSKGKMHRDIKGANILLTDNGHVKLADFGVSAQITATIAKRKSFIGTPYWMAPEVAAVERKGGYNQLCDLWAVGITAIELAELQPPMFDLHPMRALFLMTKSNFQPPKLKDKMKWSNSFHHFVKMALTKNPKKRPTAEKLLQHPFVTQHLTRSLAIELLDKVNNPDHSTYHDFDDDDPEPLVAVPHRIHSTSRNVREEKTRSEITFGQVKFDPPLRKETEPHHELPDSDGFLDSSEEIYYTARSNLDLQLEYGQGHQGGYFLGANKSLLKSVEEELHQRGHVAHLEDDEGDDDESKHSTLKAKIPPPLPPKPKSIFIPQEMHSTEDENQGTIKRCPMSGSPAKPSQVPPRPPPPRLPPHKPVALGNGMSSFQLNGERDGSLCQQQNEHRGTNLSRKEKKDVPKPISNGLPPTPKVHMGACFSKVFNGCPLKIHCASSWINPDTRDQYLIFGAEEGIYTLNLNELHETSMEQLFPRRCTWLYVMNNCLLSISGKASQLYSHNLPGLFDYARQMQKLPVAIPAHKLPDRILPRKFSVSAKIPETKWCQKCCVVRNPYTGHKYLCGALQTSIVLLEWVEPMQKFMLIKHIDFPIPCPLRMFEMLVVPEQEYPLVCVGVSRGRDFNQVVRFETVNPNSTSSWFTESDTPQTNVTHVTQLERDTILVCLDCCIKIVNLQGRLKSSRKLSSELTFDFQIESIVCLQDSVLAFWKHGMQGRSFRSNEVTQEISDSTRIFRLLGSDRVVVLESRPTDNPTANSNLYILAGHENSY [MAP4K3]” yielded a thermal stability score (HeLa Kyoto [2]; [3]) of 0.473 and a thermal stability score (HeLa Kyoto [2]; cell cycle stage: mitosis) of 0.693.
For “MNRESFAAGERLVSPAYVRQGCEARRSHEHLIRLLLEKGKCPENGWDESTLELFLHELAIMDSNNFLGNCGVGEREGRVASALVARRHYRFIHGIGRSGDISAVQPKAAGSSLLNKITNSLVLDIIKLAGVHTVANCFVVPMATGMSLTLCFLTLRHKRPKAKYIIWPRIDQKSCFKSMITAGFEPVVIENVLEGDELRTDLKAVEAKVQELGPDCILCIHSTTSCFAPRVPDRLEELAVICANYDIPHIVNNAYGVQSSKCMHLIQQGARVGRIDAFVQSLDKNFMVPVGGAIIAGFNDSFIQEISKMYPGRASASPSLDVLITLLSLGSNGYKKLLKERKEMFSYLSNQIKKLSEAYNERLLHTPHNPISLAMTLKTLDEHRDKAVTQLGSMLFTRQVSGARVVPLGSMQTVSGYTFRGFMSHTNNYPCAYLNAASAIGMKMQDVDLFIKRLDRCLKAVRKERSKESDDNYDKTEDVDIEEMALKLDNVLLDTYQDASS [SEPSECS]”, the thermal stability score (HeLa Kyoto [2]; [3]) was -1.52 and the thermal stability score (HeLa Kyoto [2]; cell cycle stage: mitosis) was -1.62.
In the case of “MNSMNPMKPALPPAPHGDGSFAYESVPWQQSATQPAGSLSVVTTVWGVGNATQSQVLGNPMGPAGSPSGSSMMPGVAGGSSALTSPQCLGQQAFAEGGANKGYVQQGVYSRGGYPGAPGFTTGYAGGPGGLGLPSHAARPSTDFTQAAAAAAVAAAAATATATATATVAALQEKQSQELSQYGAMGAGQSFNSQFLQHGGPRGPSVPAGMNPTGIGGVMGPSGLSPLAMNPTRAAGMTPLYAGQRLPQHGYPGPPQAQPLPRQGVKRTYSEVYPGQQYLQGGQYAPSTAQFAPSPGQPPAPSPSYPGHRLPLQQGMTQSLSVPGPTGLHYKPTEQFNGQGASFNGGSVSYSQPGLSGPTRSIPGYPSSPLPGNPTPPMTPSSSVPYMSPNQEVKSPFLPDLKPNLNSLHSSPSGSGPCDELRLTFPVRDGVVLEPFRLQHNLAVSNHVFQLRDSVYKTLIMRPDLELQFKCYHHEDRQMNTNWPASVQVSVNATPLTIERGDNKTSHKPLYLKHVCQPGRNTIQITVTACCCSHLFVLQLVHRPSVRSVLQGLLKKRLLPAEHCITKIKRNFSSGTIPGTPGPNGEDGVEQTAIKVSLKCPITFRRIQLPARGHDCRHIQCFDLESYLQLNCERGTWRCPVCNKTALLEGLEVDQYMLGILIYIQNSDYEEITIDPTCSWKPVPVKPDMHIKEEPDGPALKRCRTVSPAHVLMPSVMEMIAALGPGAAPFAPLQPPSVPAPSDYPGQGSSFLGPGTFPESFPPTTPSTPTLAEFTPGPPPISYQSDIPSSLLTSEKSTACLPSQMAPAGHLDPTHNPGTPGLHTSNLGAPPGPQLHHSNPPPASRQSLGQASLGPTGELAFSPATGVMGPPSMSGAGEAPEPALDLLPELTNPDELLSYLGPPDLPTNNNDDLLSLFENN [ZMIZ2]”, the thermal stability score (HeLa Kyoto [2]; [3]) is reported as 0.174 and the thermal stability score (HeLa Kyoto [2]; cell cycle stage: mitosis) is reported as 0.237.
“MSVPGPYQAATGPSSAPSAPPSYEETVAVNSYYPTPPAPMPGPTTGLVTGPDGKGMNPPSYYTQPAPIPNNNPITVQTVYVQHPITFLDRPIQMCCPSCNKMIVSQLSYNAGALTWLSCGSLCLLGCIAGCCFIPFCVDALQDVDHYCPNCRALLGTYKRL [LITAF]” showed a thermal stability score (HeLa Kyoto [2]; [3]) of -0.592 and a thermal stability score (HeLa Kyoto [2]; cell cycle stage: mitosis) of -0.943.
With “MVRFKHRYLLCELVSDDPRCRLSLDDRVLSSLVRDTIARVHGTFGAAACSIGFAVRYLNAYTGIVLLRCRKEFYQLVWSALPFITYLENKGHRYPCFFNTLHVGGTIRTCQKFLIQYNRRQLLILLQNCTDEGEREAIQKSVTRSCLLEEEEESGEEAAEAME [POP5]” the thermal stability score (HeLa Kyoto [2]; [3]) was -0.00794 and the thermal stability score (HeLa Kyoto [2]; cell cycle stage: mitosis) was -2.6.
Substance TTC3 has a thermal stability score (HeLa Kyoto [2]; [3]) of 0.321 and a thermal stability score (HeLa Kyoto [2]; cell cycle stage: mitosis) of -0.39.
